Laboratory results: patent US20160002619A1 (CORNELL UNIVERSITY, published 2016)

Biological target: T1, ALEXA FLUOR 488-labeled mouse GAC D391K (constitutive dimer mutant) (mouse, UniProt D3Z7P3 72-555, ALEXA FLUOR 488 succinimidyl ester covalently attached to a lysine amino group within the glutaminase domain (exact residue not given))
T1 sequence: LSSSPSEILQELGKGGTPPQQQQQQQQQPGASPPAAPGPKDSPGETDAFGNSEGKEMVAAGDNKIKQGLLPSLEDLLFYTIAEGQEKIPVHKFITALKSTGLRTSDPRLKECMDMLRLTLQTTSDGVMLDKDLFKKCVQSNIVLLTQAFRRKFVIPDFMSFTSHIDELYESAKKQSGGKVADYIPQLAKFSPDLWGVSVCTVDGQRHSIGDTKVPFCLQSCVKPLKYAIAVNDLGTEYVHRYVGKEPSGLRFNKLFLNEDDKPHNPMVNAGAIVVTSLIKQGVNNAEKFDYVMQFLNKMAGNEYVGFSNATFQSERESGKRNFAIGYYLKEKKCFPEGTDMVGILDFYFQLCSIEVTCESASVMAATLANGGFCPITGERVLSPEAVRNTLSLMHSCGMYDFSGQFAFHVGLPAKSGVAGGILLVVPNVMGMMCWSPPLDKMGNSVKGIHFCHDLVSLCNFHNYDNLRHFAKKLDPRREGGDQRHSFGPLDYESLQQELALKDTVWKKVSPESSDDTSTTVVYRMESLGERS
Test: FRET: 5 nM 488-D391K-GAC titrated with QSY 9-D391K-GAC, fit to a simple ligand binding equation; monomer-monomer association to a dimer
Description: FIGS. 10A-B illustrate measuring of the monomer-monomer binding affinity. […] In FIG. 10B, FRET values from FIG. 10A were plotted in a sigma plot and fit to non-linear regression simple ligand binding equation (line).

Kd: 2.5 nM
B1: QSY 9-labeled mouse GAC D391K (constitutive dimer mutant) (enzyme)
chain: T1 sequence
modifications: QSY 9 succinimidyl ester covalently attached to a lysine amino group (exact residue not given)
notes: also called QSY 9-D391K-GAC; QSY 9-GAC (D391K) dimer mutant
